Drawing on doi:10.1101/2022.11.23.517751, this text covers stoichiometry N for 1 substance.

The experiment addresses VZV gB[H527P] on extracellular vesicles (EVs) from BHK-21 cells (varicella-zoster virus (VZV)) (UniProt Q4JR05). Put plainly: cryo-EM structure.

On to “VZV gB[H527P] on extracellular vesicles (EVs) from BHK-21 cells (from UniProt Q4JR05 72-931) (natural protein)”, for which the stoichiometry N came to 3.

As a reminder, the stoichiometry N is a count of units in the complex or per binding partner.
